# Measurements as given in patent US20170029894A1 (Novartis, published 2017).
# Assays:
# Experiment in all cases: peptide array of 15-mer IL-13 peptides
# [1] = target: IL-13 peptide 1 (…) (human)
# [2] = target: IL-13 peptide 10 (…) (human)
# [3] = target: IL-13 peptide 11 (…) (human)
# [4] = target: IL-13 peptide 12 (…) (human)
# [5] = target: IL-13 peptide 13 (…) (human)
# [6] = target: IL-13 peptide 14 (…) (human)
# [7] = target: IL-13 peptide 15 (…) (human)
# [8] = target: IL-13 peptide 16 (…) (human)
# [9] = target: IL-13 peptide 17 (…) (human)
# [10] = target: IL-13 peptide 18 (…) (human)
# [11] = target: IL-13 peptide 19 (…) (human)
# [12] = target: IL-13 peptide 2 (…) (human)
# [13] = target: IL-13 peptide 20 (…) (human)
# [14] = target: IL-13 peptide 21 (…) (human)
# [15] = target: IL-13 peptide 22 (…) (human)
# [16] = target: IL-13 peptide 23 (…) (human)
# [17] = target: IL-13 peptide 24 (…) (human)
# [18] = target: IL-13 peptide 25 (…) (human)
# [19] = target: IL-13 peptide 26 (…) (human)
# [20] = target: IL-13 peptide 27 (…) (human)
# [21] = target: IL-13 peptide 28 (…) (human)
# [22] = target: IL-13 peptide 29 (…) (human)
# [23] = target: IL-13 peptide 3 (…) (human)
# [24] = target: IL-13 peptide 30 (…) (human)
# [25] = target: T1, IL-13 peptide 6 (EELVNITQNQKAPLC) (human)
# T1 peptide: EELVNITQNQKAPLC
# Description: (§1) The sequence of IL-13 was probed at the peptide level to identify the binding site with ANTIBODY 01951/G12. Thirty four 15-mer peptides were synthesized in order to scan the entire sequence with 12 residue overlap starting from the N-terminus. The synthesis of the peptides, preparation of the peptide-array slides, incubation with antibodies and data analysis where done as described by Maksimov et al. (PLoS ONE 7(3): e34212).
# (§2) The binding signal intensity (light unit) observed is reported for each peptide, in column 1 against a control unrelated human antibody and in column 2 against ANTIBODY 01951/G12. Signals above 10000 Light Units are considered as being significant. 2 overlapping peptides in the set of the 34 peptides produced a signal above that threshold, peptide 22 ([…]) (SEQ ID NO: 31) and peptide 23 ([…]) (SEQ ID NO: 32). The overlapping sequence between both peptides is […] (SEQ ID NO: 33).
# [26] = target: T2, IL-13 peptide 7 (VNITQNQKAPLCNGS) (human)
# T2 peptide: VNITQNQKAPLCNGS
# Description: as §1, §2
# [27] = target: T3, IL-13 peptide 8 (TQNQKAPLCNGSMVW) (human)
# T3 peptide: TQNQKAPLCNGSMVW
# Description: as §1, §2
# [28] = target: T4, IL-13 peptide 9 (QKAPLCNGSMVWSIN) (human)
# T4 peptide: QKAPLCNGSMVWSIN
# Description: as §1, §2
# [29] = target: T5, IL-13 peptide 10 (PLCNGSMVWSINLTA) (human)
# T5 peptide: PLCNGSMVWSINLTA
# Description: as §1, §2
# [30] = target: T6, IL-13 peptide 11 (NGSMVWSINLTAGMY) (human)
# T6 peptide: NGSMVWSINLTAGMY
# Description: as §1, §2
# [31] = target: T7, IL-13 peptide 12 (MVWSINLTAGMYCAA) (human)
# T7 peptide: MVWSINLTAGMYCAA
# Description: as §1, §2
# [32] = target: T8, IL-13 peptide 13 (SINLTAGMYCAALES) (human)
# T8 peptide: SINLTAGMYCAALES
# Description: as §1, §2
# [33] = target: T9, IL-13 peptide 14 (LTAGMYCAALESLIN) (human)
# T9 peptide: LTAGMYCAALESLIN
# Description: as §1, §2
# [34] = target: T10, IL-13 peptide 15 (GMYCAALESLINVSG) (human)
# T10 peptide: GMYCAALESLINVSG
# Description: as §1, §2
# [35] = target: T11, IL-13 peptide 16 (CAALESLINVSGCSA) (human)
# T11 peptide: CAALESLINVSGCSA
# Description: as §1, §2
# [36] = target: T12, IL-13 peptide 17 (LESLINVSGCSAIEK) (human)
# T12 peptide: LESLINVSGCSAIEK
# Description: as §1, §2
# [37] = target: T13, IL-13 peptide 18 (LINVSGCSAIEKTQR) (human)
# T13 peptide: LINVSGCSAIEKTQR
# Description: as §1, §2
# [38] = target: T14, IL-13 peptide 19 (VSGCSAIEKTQRMLS) (human)
# T14 peptide: VSGCSAIEKTQRMLS
# Description: as §1, §2
# [39] = target: T15, IL-13 peptide 20 (CSAIEKTQRMLSGFC) (human)
# T15 peptide: CSAIEKTQRMLSGFC
# Description: as §1, §2
# [40] = target: T16, IL-13 peptide 21 (IEKTQRMLSGFCPHK) (human)
# T16 peptide: IEKTQRMLSGFCPHK
# Description: as §1, §2
# [41] = target: T17, IL-13 peptide 22 (TQRMLSGFCPHKVSA) (human)
# T17 peptide: TQRMLSGFCPHKVSA
# Description: as §1, §2
# [42] = target: T18, IL-13 peptide 23 (MLSGFCPHKVSAGQF) (human)
# T18 peptide: MLSGFCPHKVSAGQF
# Description: as §1, §2
# [43] = target: T19, IL-13 peptide 25 (PHKVSAGQFSSLHVR) (human)
# T19 peptide: PHKVSAGQFSSLHVR
# Description: as §1, §2
# [44] = target: T20, IL-13 peptide 26 (VSAGQFSSLHVRDTK) (human)
# T20 peptide: VSAGQFSSLHVRDTK
# Description: as §1, §2
# [45] = target: T21, IL-13 peptide 27 (GQFSSLHVRDTKIEV) (human)
# T21 peptide: GQFSSLHVRDTKIEV
# Description: as §1, §2
# [46] = target: T22, IL-13 peptide 28 (SSLHVRDTKIEVAQF) (human)
# T22 peptide: SSLHVRDTKIEVAQF
# Description: as §1, §2
# [47] = target: T23, IL-13 peptide 29 (HVRDTKIEVAQFVKD) (human)
# T23 peptide: HVRDTKIEVAQFVKD
# Description: as §1, §2
# [48] = target: T24, IL-13 peptide 30 (DTKIEVAQFVKDLLL) (human)
# T24 peptide: DTKIEVAQFVKDLLL
# Description: as §1, §2
# [49] = target: T25, IL-13 peptide 31 (IEVAQFVKDLLLHLK) (human)
# T25 peptide: IEVAQFVKDLLLHLK
# Description: as §1, §2
# [50] = target: T26, IL-13 peptide 32 (AQFVKDLLLHLKKLF) (human)
# T26 peptide: AQFVKDLLLHLKKLF
# Description: as §1, §2
# [51] = target: T27, IL-13 peptide 33 (VKDLLLHLKKLFREG) (human)
# T27 peptide: VKDLLLHLKKLFREG
# Description: as §1, §2
# [52] = target: T28, IL-13 peptide 34 (LLLHLKKLFREGRFN) (human)
# T28 peptide: LLLHLKKLFREGRFN
# Description: as §1, §2
# [53] = target: T29, IL-13 peptide 1 (SPGPVPPSTALRELI) (human)
# T29 peptide: SPGPVPPSTALRELI
# Description: as §1, §2
# [54] = target: T30, IL-13 peptide 2 (PVPPSTALRELIEEL) (human)
# T30 peptide: PVPPSTALRELIEEL
# Description: as §1, §2
# [55] = target: T31, IL-13 peptide 3 (PSTALRELIEELVNI) (human)
# T31 peptide: PSTALRELIEELVNI
# Description: as §1, §2
# [56] = target: T32, IL-13 peptide 4 (ALRELIEELVNITQN) (human)
# T32 peptide: ALRELIEELVNITQN
# Description: as §1, §2
# [57] = target: T33, IL-13 peptide 5 (ELIEELVNITQNQKA) (human)
# T33 peptide: ELIEELVNITQNQKA
# Description: as §1, §2
molecule,measurement,setting,value
control unrelated human antibody,Corrected Mean signal intensity (Light Unit),[1],44.3 Light Unit
same,Corrected Mean signal intensity (Light Unit),[2],-6.5 Light Unit
same,Corrected Mean signal intensity (Light Unit),[3],-5 Light Unit
same,Corrected Mean signal intensity (Light Unit),[4],19 Light Unit
same,Corrected Mean signal intensity (Light Unit),[5],-1.5 Light Unit
same,Corrected Mean signal intensity (Light Unit),[6],1 Light Unit
same,Corrected Mean signal intensity (Light Unit),[7],1 Light Unit
same,Corrected Mean signal intensity (Light Unit),[8],1 Light Unit
same,Corrected Mean signal intensity (Light Unit),[9],18.7 Light Unit
same,Corrected Mean signal intensity (Light Unit),[10],12.5 Light Unit
same,Corrected Mean signal intensity (Light Unit),[11],15 Light Unit
same,Corrected Mean signal intensity (Light Unit),[12],-9 Light Unit
same,Corrected Mean signal intensity (Light Unit),[13],26 Light Unit
same,Corrected Mean signal intensity (Light Unit),[14],101 Light Unit
same,Corrected Mean signal intensity (Light Unit),[15],123 Light Unit
same,Corrected Mean signal intensity (Light Unit),[16],23 Light Unit
same,Corrected Mean signal intensity (Light Unit),[17],3.3 Light Unit
same,Corrected Mean signal intensity (Light Unit),[18],-24.7 Light Unit
same,Corrected Mean signal intensity (Light Unit),[19],3.7 Light Unit
same,Corrected Mean signal intensity (Light Unit),[20],-10.5 Light Unit
same,Corrected Mean signal intensity (Light Unit),[21],-6 Light Unit
same,Corrected Mean signal intensity (Light Unit),[22],-17 Light Unit
same,Corrected Mean signal intensity (Light Unit),[23],-7.3 Light Unit
same,Corrected Mean signal intensity (Light Unit),[24],-13 Light Unit
"ANTIBODY 01951/G12 (antibody, human IgG1, kappa, V domains shown, also called target antibody) VH: EVQLVESGGGVVQPGRSLRLSCAASGFTFSSYGMHWVRQAPGKGLEWVAIIWYDGSNKYYADSVKGRFTISRDNSKNTLYLQMNSLRAEDTAVYYCARLWFGDLDAFDIWGQGTMVTVSS VL: EIVLTQSPATLSLSPGERAILSCRAGQSVSSYLVWYQQKPGQAPRLLIYDASNRATGIPARFSGSGSGTDFTLTISSLEPEDFAVYYCQQRSSWPPVYTFGQGTKLEIKR",Corrected Mean signal intensity (Light Unit),[17],493 Light Unit
same,Corrected Mean signal intensity (Light Unit),[25],1 Light Unit
same,binding result,[25],no binding (tested: 10000 Light Units)
same,Corrected Mean signal intensity (Light Unit),[26],-405 Light Unit
same,Corrected Mean signal intensity (Light Unit),[27],-350 Light Unit
same,Corrected Mean signal intensity (Light Unit),[28],-518 Light Unit
same,Corrected Mean signal intensity (Light Unit),[29],-982 Light Unit
same,Corrected Mean signal intensity (Light Unit),[30],-132 Light Unit
same,Corrected Mean signal intensity (Light Unit),[31],56.5 Light Unit
same,binding result,[31],no binding (tested: 10000 Light Units)
same,Corrected Mean signal intensity (Light Unit),[32],-757 Light Unit
same,Corrected Mean signal intensity (Light Unit),[33],-99.7 Light Unit
same,Corrected Mean signal intensity (Light Unit),[34],-987 Light Unit
same,Corrected Mean signal intensity (Light Unit),[35],-587 Light Unit
same,Corrected Mean signal intensity (Light Unit),[36],-340 Light Unit
same,Corrected Mean signal intensity (Light Unit),[37],-539 Light Unit
same,Corrected Mean signal intensity (Light Unit),[38],-830 Light Unit
same,Corrected Mean signal intensity (Light Unit),[39],-721 Light Unit
same,Corrected Mean signal intensity (Light Unit),[40],2210 Light Unit
same,Corrected Mean signal intensity (Light Unit),[41],38600 Light Unit
same,Corrected Mean signal intensity (Light Unit),[42],48100 Light Unit
same,Corrected Mean signal intensity (Light Unit),[43],-386 Light Unit
same,Corrected Mean signal intensity (Light Unit),[44],-778 Light Unit
same,Corrected Mean signal intensity (Light Unit),[45],-291 Light Unit
same,Corrected Mean signal intensity (Light Unit),[46],-170 Light Unit
same,Corrected Mean signal intensity (Light Unit),[47],-734 Light Unit
same,Corrected Mean signal intensity (Light Unit),[48],-438 Light Unit
same,Corrected Mean signal intensity (Light Unit),[49],-810 Light Unit
same,Corrected Mean signal intensity (Light Unit),[50],-746 Light Unit
same,Corrected Mean signal intensity (Light Unit),[51],-203 Light Unit
same,Corrected Mean signal intensity (Light Unit),[52],7150 Light Unit
same,Corrected Mean signal intensity (Light Unit),[53],-1070 Light Unit
same,Corrected Mean signal intensity (Light Unit),[54],-1130 Light Unit
same,Corrected Mean signal intensity (Light Unit),[55],-210 Light Unit
same,Corrected Mean signal intensity (Light Unit),[56],-207 Light Unit
same,Corrected Mean signal intensity (Light Unit),[57],-131 Light Unit
